B1: RHOBTB2 (parent)
chain: LYTGELDENERDLMHIAHIAELLE
B2: LRRC45 (parent)
chain: DLSAANEKNLLLQNQVDELERKFR

Variants of: B1
Test: protein stability index of a GFP-peptide fusion (GPS, HEK-293T) (PSI 1-6); higher = more stable
Details: c terminus: a fixed tail appended
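Further: lentivirally expressed fusions sorted by FACS into six bins by GFP to DsRed ratio, PSI derived from sequencing read proportions per bin multiplied by bin number.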

| Variant | protein stability index |
| --- | --- |
| LYTGERDENERDLMHIAHIAELLE | 2.79 |
| LYTGEKDENERDLMHIAHIAELLE | 3.31 |
| LYTGEMDENERDLMHIAHIAELLE | 2.56 |
| LYTGEHDENERDLMHIAHIAELLE | 2.96 |
| LYTGESDENERDLMHIAHIAELLE | 2.81 |
| LYTGEVDENERDLMHIAHIAELLE | 2.38 |
| LYTGEQDENERDLMHIAHIAELLE | 3.86 |
| LYTGEFDENERDLMHIAHIAELLE | 2.46 |
| LYTGEADENERDLMHIAHIAELLE | 3.38 |
| LYTGECDENERDLMHIAHIAELLE | 2.91 |
| LYTGENDENERDLMHIAHIAELLE | 3.49 |
| LYTGEIDENERDLMHIAHIAELLE | 2.64 |
| LYTGEDDENERDLMHIAHIAELLE | 3.27 |
| LYTGEWDENERDLMHIAHIAELLE | 2.44 |
| LYTGETDENERDLMHIAHIAELLE | 3.57 |
| LYTGEPDENERDLMHIAHIAELLE | 2.95 |
| LYTGEGDENERDLMHIAHIAELLE | 3.11 |
| LYTTELDENERDLMHIAHIAELLE | 2.25 |
| LYTDELDENERDLMHIAHIAELLE | 2.53 |
| LYTSELDENERDLMHIAHIAELLE | 2.42 |
| LYTFELDENERDLMHIAHIAELLE | 1.93 |
| LYTAELDENERDLMHIAHIAELLE | 2.31 |
| LYTVELDENERDLMHIAHIAELLE | 1.44 |
| LYTRELDENERDLMHIAHIAELLE | 2.29 |
| LYTYELDENERDLMHIAHIAELLE | 2.2 |
| LYTEELDENERDLMHIAHIAELLE | 2.32 |
| LYTIELDENERDLMHIAHIAELLE | 2.56 |
| LYTWELDENERDLMHIAHIAELLE | 1.5 |

| Variant | protein stability index |
| --- | --- |
| LYTKELDENERDLMHIAHIAELLE | 1.89 |
| LYTQELDENERDLMHIAHIAELLE | 2.7 |
| LYTPELDENERDLMHIAHIAELLE | 2.46 |
| LYTCELDENERDLMHIAHIAELLE | 1.87 |
| LYTHELDENERDLMHIAHIAELLE | 1.99 |
| LYTMELDENERDLMHIAHIAELLE | 1.77 |
| LYTLELDENERDLMHIAHIAELLE | 1.76 |
| LYTNELDENERDLMHIAHIAELLE | 2.05 |
| LYTGELLENERDLMHIAHIAELLE | 3.31 |
| LYTGELFENERDLMHIAHIAELLE | 2.3 |
| LYTGELSENERDLMHIAHIAELLE | 2.48 |
| LYTGELAENERDLMHIAHIAELLE | 2.48 |
| LYTGELKENERDLMHIAHIAELLE | 2.33 |
| LYTGELIENERDLMHIAHIAELLE | 1.77 |
| LYTGELQENERDLMHIAHIAELLE | 1.94 |
| LYTGELEENERDLMHIAHIAELLE | 2.41 |
| LYTGELGENERDLMHIAHIAELLE | 2.15 |
| LYTGELCENERDLMHIAHIAELLE | 1.88 |
| LYTGELWENERDLMHIAHIAELLE | 1.64 |
| LYTGELHENERDLMHIAHIAELLE | 1.62 |
| LYTGELPENERDLMHIAHIAELLE | 2.52 |
| LYTGELRENERDLMHIAHIAELLE | 2.25 |
| LYTGELMENERDLMHIAHIAELLE | 1.97 |
| LYTGELNENERDLMHIAHIAELLE | 2.17 |
| LYTGELTENERDLMHIAHIAELLE | 2.16 |
| LYTGELVENERDLMHIAHIAELLE | 2.46 |
| LYTGELYENERDLMHIAHIAELLE | 1.89 |

Variants of: B2
Test: as above
Details: c terminus: a fixed tail appended

| Variant | protein stability index |
| --- | --- |
| DLSAANEKNLLLQNQVDELERKNR | 4.78 |
| DLSAANEKNILLQNQVDELERKFR | 3.58 |
| DLSAANEKNMLLQNQVDELERKFR | 4.09 |
| DLSAANEKNLLLQNQVDEWERKFR | 3.75 |
| DLAAANEKNLLLQNQVDELERKFR | 4.44 |
| DLFAANEKNLLLQNQVDELERKFR | 3.49 |
| DLTAANEKNLLLQNQVDELERKFR | 3.62 |
| DLQAANEKNLLLQNQVDELERKFR | 4.04 |
| DLGAANEKNLLLQNQVDELERKFR | 4.54 |
| DLIAANEKNLLLQNQVDELERKFR | 3.51 |
| DLSAQNEKNLLLQNQVDELERKFR | 3.9 |
| DLSAYNEKNLLLQNQVDELERKFR | 3.87 |
| DLSAANEDNLLLQNQVDELERKFR | 4.21 |
| DLSAANENNLLLQNQVDELERKFR | 4 |
| DLSAANEKNLLLQNQVDELHRKFR | 3.35 |
| DLSAANEKNLLLQNQVDELIRKFR | 3.47 |
| DLSAANEKNLLLQNQVDELFRKFR | 2.54 |
| DLSAANEKNLLLQNQSDELERKFR | 4.32 |
| DLSAAVEKNLLLQNQVDELERKFR | 4.38 |
| DLSAAYEKNLLLQNQVDELERKFR | 3.77 |

| Variant | protein stability index |
| --- | --- |
| DLSAAFEKNLLLQNQVDELERKFR | 3.62 |
| DLSAAAEKNLLLQNQVDELERKFR | 5.2 |
| DLSAANEKNLLLQNQVDALERKFR | 3.57 |
| DLSAANEKNLLLQNQVDNLERKFR | 3.56 |
| DLSAANEKNLLLQNQVDKLERKFR | 3.94 |
| DLSAANEKILLLQNQVDELERKFR | 4.21 |
| DLSAANEKKLLLQNQVDELERKFR | 4.11 |
| DLSAANEKPLLLQNQVDELERKFR | 4.3 |
| DLSAANEKNLLLQNVVDELERKFR | 3.48 |
| DLSVANEKNLLLQNQVDELERKFR | 3.77 |
| DLSAANEKNLLLQNQVDELERKFN | 4.47 |
| DLSAANEKNLLLQNQVDELERKFL | 3.78 |
| DLSAANEKNLLLQNQVDELERKFF | 3.62 |
| DLSAANEKNLHLQNQVDELERKFR | 4.59 |
| DLSAANEKNLLLQWQVDELERKFR | 3.63 |
| DLSAANEKNLLLQKQVDELERKFR | 3.69 |
| DLSAANEKNLLLQRQVDELERKFR | 3.76 |
| DLSAANEKNLLLQNQVNELERKFR | 3.52 |
| FLSAANEKNLLLQNQVDELERKFR | 4.09 |

Reference: the supplement of paper PMC10567573
